Target: T1, HD_(N-TIMP2,V3) bi-specific heterodimer (N-TIMP2 fused by a linker to V3, the engineered soluble …)
T1 construct: flexible linker; Order on the chain: N-TIMP2, linker, V3, human IgG1 Fc, 6xHis; Vector pFUSE-hIgG1e3-Fc1; Glycosylated; also called bi-specific fusion protein; source: HEK293F, transiently transfected, secreted, purified (Ni-NTA, gel filtration); not shown: Fc (human IgG1), C-terminal, kept
Assay: BLI; Octet Red; HD_(N-TIMP2,V3) or V3 loaded on Protein A sensors (10 ug/ml, 300 s); IL-17A or MMP-9CAT in solution at 50, 100, 200 nM; 300 s association, 1800-2500 s dissociation; 30 C; PBS, 1% BSA, 0.05% Tween; 1:1 binding model
Details: both partners purified

- Kd: 1.65 ± 0.02 nM
B1: MMP-9CAT (soluble MMP-9 catalytic domain) (enzyme)
chain: FQTFEGDLKWHHHNITYWIQNYSEDLPRAVIDDAFARAFALWSAVTPLTFTRVYSRDADIVIQFGVAEHGDGYPFDGKDGLLAHAFPPGPGIQGDAHFDDDELWSLGKGQGYSLFLVAAHEFGHALGLDHSSVPEALMYPMYRFTEGPPLHKDDVNGIRHLY
modifications: Active enzyme, catalytic and structural Zn2+ and Ca2+ (assay buffer has 5 mM CaCl2). Limits are not printed in the text given. Taken by convention from the MMP-9 catalytic domain lacking the …

Source: publication PMC6033355, “A bi-specific inhibitor targeting IL-17A and MMP-9 reduces invasion and motility in MDA-MB-231 cells” (Oncotarget, 2018)
